T1: human CD30 (human, UniProt P28908 19-385, limits assumed)
T1 sequence (looked up): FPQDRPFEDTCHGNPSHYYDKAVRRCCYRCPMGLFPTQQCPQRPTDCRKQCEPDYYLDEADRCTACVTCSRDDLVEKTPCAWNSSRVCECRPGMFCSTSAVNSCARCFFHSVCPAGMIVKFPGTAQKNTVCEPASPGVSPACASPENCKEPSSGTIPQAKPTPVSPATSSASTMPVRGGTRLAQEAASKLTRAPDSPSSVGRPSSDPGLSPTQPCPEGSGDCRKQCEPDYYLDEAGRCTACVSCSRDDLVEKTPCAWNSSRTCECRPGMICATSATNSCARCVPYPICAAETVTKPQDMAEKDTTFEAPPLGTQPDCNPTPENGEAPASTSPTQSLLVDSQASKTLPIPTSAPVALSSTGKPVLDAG

B1: human TRAIL (TNF Related Apoptosis Inducing Ligand), as used in the receptor binding analysis (ligand)
chain: MAMMEVQGGPSLGQTCVLIVIFTVLLQSLCVAVTYVYFTNELKQMQDKYSKSGIACFLKEDDSYWDPNDEESMNSPCWQVKWQLRQLVRKMILRTSEETISTVQEKQQNISPLVRERGPQRVAAHITGTRGRSNTLSSPNSKNEKALGRKINSWESSRSGHSFLSNLHLRNGELVIHEKGFYYIYSQTYFRFQEEIKENTKNDKQMVQYIYKYTSYPDPILLMKSARNSCWSKDAEYGLYSIYQGGIFELKENDRIFVSVTNEHLIDMDHEASFFGAFLVG
notes: also called huTRAIL

Legend:
[1] = molecular target: B1; assay: slide autoradiography (procedure of Gearing et al.)
Description: (§1) TRAIL was tested for ability to bind receptors of the TNF-R family of receptors. The binding analysis was conducted using the slide autoradiography procedure of Gearing et al. (EMBO J. 8:3667, 1989).

human CD30 = molecular target: T1, human CD30; assay: as above
Description: as §1

binding result [1]	binding result (human CD30)	Binder
no binding		human LTβR (receptor, UniProt P36941 31-227, looked up, also called TNFR-RP) QAVPPYASENQTCRDQEKEYYEPQHRICCSRCPPGTYVSAKCSRIRDTVCATCAENSYNEHWNYLTICQLCRPCDPVMGLEEIAPCTSKRKTQCRCQPGMFCAAWALECTHCELLSDCPPGTEAELKDEVGKGNNHCVPCKAGHFQNTSSPSARCQPHTRCENQGLVEAAPGTAQSDTTCKNPLEPLPPEMSGTMLM
	no binding	B1
no binding		human TNF-R (p80 form) (receptor, UniProt P20333 23-257, looked up) LPAQVAFTPYAPEPGSTCRLREYYDQTAQMCCSKCSPGQHAKVFCTKTSDTVCDSCEDSTYTQLWNWVPECLSCGSRCSSDQVETQACTREQNRICTCRPGWYCALSKQEGCRLCAPLRKCRPGFGVARPGTETSDVVCKPCAPGTFSNTTSSTDICRPHQICNVVAIPGNASMDAVCTSTSPTRSMAPGAVHLPQPVSTRSQHTQPTPEPSTAPSTSFLLPMGPSPPAEGSTGD
no binding		human CD27 (receptor, UniProt P26842 20-191, looked up) ATPAPKSCPERHYWAQGKLCCQMCEPGTFLVKDCDQHRKAAQCDPCIPGVSFSPDHHTRPHCESCRHCNSGLLVRNCTITANAECACRNGWQCRDKECTECDPLPNPSLTARSSQALSPHPQPTHLPYVSEMLEARTAGHMQTLADFRQLPARTLSTHWPPQRSLCSSDFIR
no binding		human OX40 (receptor, UniProt P43489 29-214, looked up) LHCVGDTYPSNDRCCHECRPGNGMVSRCSRSQNTVCRPCGPGFYNDVVSSKPCKPCTWCNLRSGSERKQLCTATQDTVCRCRAGTQPLDSYKPGVDCAPCPPGHFSPGDNQACKPWTNCTLAGKHTLQPASNSSDAICEDRDPPATQPQETQGPPARPITVQPTEAWPRTSQGPSTRPVEVPGGRA

Reference: patent US20040052788A1 (IMMUNEX, published 2004)
